Laboratory results taken from patent publication US20240239887A1 (SUZHOU KANOVA BIOPHARMACEUTICAL, published 2024).

T1: TIGIT (SPR analyte) (human, UniProt Q495A1 22-141, limits assumed)
T1 construct: the text says only 'TIGIT was used as the analyte'; The construct is not described; also called human TIGIT
T1 sequence (looked up): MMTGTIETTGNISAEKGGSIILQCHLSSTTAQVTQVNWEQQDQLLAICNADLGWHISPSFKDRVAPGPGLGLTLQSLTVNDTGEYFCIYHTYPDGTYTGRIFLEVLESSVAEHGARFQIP

T2: human TIGIT/mIgG2aFc recombinant protein (human, UniProt Q495A1 22-141)
T2 construct: range 22-141; In-house production; also called TIGIT/mIgG2aFc protein; human TIGIT/mIgG2aFc protein; not shown: mouse IgG2a Fc
T2 sequence (looked up): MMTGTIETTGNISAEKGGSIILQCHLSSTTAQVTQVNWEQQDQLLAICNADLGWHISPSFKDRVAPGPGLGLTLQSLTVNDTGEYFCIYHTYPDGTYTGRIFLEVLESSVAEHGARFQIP

T3: full-length human TIGIT on Jurkat/TIGIT cells (human, UniProt Q495A1 22-244)
T3 construct: whole, on cells; also called Human TIGIT-expressing Jurkat cells; TIGIT expressed on cell surface
T3 sequence (looked up): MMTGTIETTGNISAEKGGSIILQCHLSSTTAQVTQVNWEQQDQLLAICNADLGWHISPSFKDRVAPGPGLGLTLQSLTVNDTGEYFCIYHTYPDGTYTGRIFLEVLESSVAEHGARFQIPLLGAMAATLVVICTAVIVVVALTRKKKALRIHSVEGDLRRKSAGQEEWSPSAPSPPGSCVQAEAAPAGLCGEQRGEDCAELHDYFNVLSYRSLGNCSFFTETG


Tests used:
TIGIT (SPR analyte) = biological target: T1, TIGIT (SPR analyte); test: SPR (Biacore 8K), antibody captured through Fc, TIGIT as analyte
Method: TIGIT was used as the analyte. The surface was regenerated before the injection of another antibody. The process was repeated until all antibodies are analyzed. The off-rates of antibodies were obtained from fitting the experimental data locally to 1:1 interaction model using the Biacore 8K evaluation software. The antibodies were ranked by their dissociation rate constants (off-rates, kd) (Table 1). Based on the ranking result, the top 4 clones were selected.

[1] = biological target: T2, human TIGIT/mIgG2aFc recombinant protein; test: ELISA, plate coated with human TIGIT/mIgG2aFc, anti-human IgG-HRP detection
Method: MaxiSorp 96-well plates (NUNC #449824) were coated with 2 μg/mL human TIGIT/mIgG2aFc protein (in-house production, the method is well known in the art) in 1× PBS (50 μL/well). Plates were incubated at 4° C. overnight. Coating solution was removed and plates were washed once with 200 μL/well PBST (1× PBS containing 0.05% tween-20). Then 200 μL/well blocking buffer (1× PBS with 0.05% tween-20, 3% BSA) was added and incubated at room temperature for 1 hour. Blocking buffer was removed and plates were washed three times with 200 μL/well PBST. Antibody VH2+VL4 (produced in Example 2) and human IgG1 isotype control (hIgG1, Sigma #I5154-1MG) was diluted by 1× PBS and added to plates (50 μL/well). Plates were incubated at room temperature for 2 hours. Antibodies in the wells were removed and plates were washed three times with 200 μL/well PBST. Goat anti-human IgG(H&L)-HRP secondary antibody (Jackson Immuno Research #109-035-088) was diluted 1:5000 in 1× PBS and added to each well (50 μL/well). Plates were incubated at room temperature for 1 hour. Secondary antibody was removed and plates were washed five times with 200 μL/well PBST. 50 μL/well TMB (eBioscience #85-00-4201-56) was added and plates were incubated at room temperature for several minutes. Then 50 μL/well 2N H₂SO₄ was added to stop the reaction. Optical density was measured at 450 nm.

[2] = biological target: T4, full-length cynomolgus TIGIT on 293T cells (cynomolgus, UniProt A0A7N9I9V4 89-312); test: flow cytometry on 293T cells transfected with cynomolgus TIGIT, biotin-labeled antibody detected with Brilliant Violet 421 streptavidin, readout % of bound cells
T4 construct: whole, on cells; also called cynomolgus-expressing 293T cells
T4 sequence (A0A7N9I9V4 entry or part of it): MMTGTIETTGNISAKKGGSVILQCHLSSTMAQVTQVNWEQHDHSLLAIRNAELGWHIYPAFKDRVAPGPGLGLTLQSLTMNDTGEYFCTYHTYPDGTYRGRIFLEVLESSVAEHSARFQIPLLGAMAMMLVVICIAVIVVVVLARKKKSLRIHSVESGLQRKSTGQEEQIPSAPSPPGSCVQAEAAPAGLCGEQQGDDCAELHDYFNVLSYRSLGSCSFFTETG
Method: A DNA encoding full-length cynomolgus TIGIT (NCBI Accession No: XP_015300911.1) was cloned into pcDNA3.4 vector (Invitrogen #A14697) and transfected into 293T cells (Cell Bank, Chinese Academy of Sciences, #SCSP-502) by using Polyethylenimine Max reagent (Polysciences #24765-2). 48 hours post-transfection, cynomolgus-expressing 293T cells were incubated with different concentrations of biotin-labeled (Thermo #21338) anti-TIGIT antibody VH2+VL4 at 4° C. for 20 minutes. Then cells were washed once by FACS buffer (PBS with 2% FBS) and incubated with Brilliant Violet 421 Streptavidin (Biolegend #405225) at 4° C. for 30 minutes. After washed once by FACS buffer, cells were resuspended in 200 μL FACS buffer. The cells after staining were analyzed by BD FACSCelesta Flow Cytometer.

[3] = biological target: T3, full-length human TIGIT on Jurkat/TIGIT …; test: flow cytometry on Jurkat/TIGIT cells, Alexa Fluor 594 goat anti-human IgG secondary antibody, readout % of bound cells
Method: Jurkat/TIGIT cells were incubated with different concentrations of anti-TIGIT antibody VH2+VL4 or human IgG1 isotype control at 4° C. for 30 minutes. Then cells were washed once by FACS buffer (PBS with 2% FBS) and incubated with Alexa Fluor 594 AffiniPure Goat Anti-human IgG secondary antibody (Jackson ImmunoResearch #109-585-088) at 4° C. for 30 minutes. After washed once by FACS buffer, cells were resuspended in 200 μL FACS buffer. The cells after staining were analyzed by BD LSRFortessa Flow Cytometer.

Row | Binder | Kd (TIGIT (SPR analyte)) [nM] | koff (TIGIT (SPR analyte)) [s⁻¹] | kon (TIGIT (SPR analyte)) [M⁻¹ s⁻¹] | EC50 [1] [nM] | EC50 [2] [nM] | EC50 [3] [nM]
1 | anti-TIGIT antibody VH2+VL4 (antibody, human IgG1, kappa, Biotin-labeled in the cynomolgus TIGIT flow cytometry assay; also called HC1 + LC3) heavy: not shown light: DIVMTQSPDSLAVSLGERATINCSASSSVSYIHWYQQKPGQPPKLLIYRTSNLASGVPDRFSGSGSGTDFTLTISSLQAEDVAVYYCQQYHSNPWTFGGGTKLEIKRTVAAPSVFIFPPSDEQLKSGTASVVCLLNNFYPREAKVQWKVDNALQSGNSQESVTEQDSKDSTYSLSSTLTLSKADYEKHKVYACEVTHQGLSSPVTKSFNRGEC | 0.101 | 4.47e-05 | 444000 | 0.47 | 0.02 | 1.13
2 | VH3 + VL4 (antibody, human IgG1, kappa, V domains shown, Humanized full-length IgG; also called HC2 + LC3) VH: QVQLVQSGAEVKKPGASVKVSCKASGYTFSRYWIEWVRQAPGQGLEWMGEIFPGSGGTNYNEKFKGRVTMTRDTSTSTVYMELSSLRSEDTAVYYCARHLGALDYWGQGTLVTVSS VL: DIVMTQSPDSLAVSLGERATINCSASSSVSYIHWYQQKPGQPPKLLIYRTSNLASGVPDRFSGSGSGTDFTLTISSLQAEDVAVYYCQQYHSNPWTFGGGTKLEIKR | 0.11 | 4.38e-05 | 396000 |  |  | 
3 | Chimeric VH+VL (Parental mouse VH+VL combined with human Fc) (antibody, human IgG1, kappa, V domains shown, also called chimeric antibody) VH: QVQLQQSGAELMKPGASVKISCKATGYTFSRYWIEWVKQRPGHGLEWIGEIFPGSGGTNYNEKFKGKATFTADTSSNTAYMQLTSLTSEDSAVYYCARHLGALDYWGQGTSVTVSS VL: QIVLTQSPAIMSASPGEKVTISCSASSSVSYIHWYQQKAGSSPKPWIYRTSNLASGVPARLSGSGSGTSYFLTISSMEAEDAATYYCQQYHSNPWTFGGGTKLEIKR | 0.179 | 5.56e-05 | 310000 |  |  | 
4 | VH4 + VL2 (antibody, human IgG1, kappa, V domains shown, Humanized full-length IgG; also called HC3 + LC1) VH: EVQLVQSGAEVKKPGESLKISCKGSGYTFSRYWIEWVRQMPGKGLEWMGEIFPGSGGTNYNEKFKGQVTISADKSISTAYLQWSSLKASDTAMYYCARHLGALDYWGQGTLVTVSS VL: DIQMTQSPSSLSASVGDRVTITCSASSSVSYIHWYQQKPGKAPKLLIYRTSNLASGVPSRFSGSGSGTDFTLTISSLQPEDFATYYCQQYHSNPWTFGGGTKLEIKR | 0.122 | 4.97e-05 | 407000 |  |  | 
5 | VH3 + VL3 (antibody, human IgG1, kappa, V domains shown, Humanized full-length IgG; also called HC2 + LC2) VH: QVQLVQSGAEVKKPGASVKVSCKASGYTFSRYWIEWVRQAPGQGLEWMGEIFPGSGGTNYNEKFKGRVTMTRDTSTSTVYMELSSLRSEDTAVYYCARHLGALDYWGQGTLVTVSS VL: EIVLTQSPGTLSLSPGERATLSCSASSSVSYIHWYQQKPGQAPRLLIYRTSNLASGIPDRFSGSGSGTDFTLTISRLEPEDFAVYYCQQYHSNPWTFGGGTKLEIKR | 0.111 | 3.25e-05 | 294000 |  |  | 
